From publication doi:10.1101/2025.08.06.668955, “High-Affinity, Structure-Validated and Selective Macrocyclic Peptide Tools for Chemical Biology Studies of Huntingtin” (bioRxiv, 2025)
Each block holds one molecule with its values, some of them ahead of it. Where a SMILES comes first, the peptide text is derived from it. Bridges are numbered along the chain shown (N, C = ends). Primed or numbered codes have the meaning given here. Where no end group is shown, it is not given here. [ ]: non-standard residue; d: D form. The star is where a group is joined. FITC″ = fluorescein isothiocyanate; ClAc = O=C(CCl)*

Key:
[1] = system: HAP40; test: Macrocycle precipitation (MP), co-purification of HAP40, LC-MS/MS; assay type: binding, human; conditions: HEK293T lysate versus HTT CRISPR knockout line
Source text: To assess macrocycle selectivity and identify potential HTT interacting proteins, we performed LC-MS/MS analysis of the proteins in the MP eluates. To control for non-specific binding, we performed MPs using lysates from a HTT CRISPR knockout cell line ([Jung et al., 2021]). Across all macrocycles, HTT emerged as the most enriched protein after background subtraction (Figure 5b). Given we performed affinity purification using macrocycles targeting distinct HTT surfaces, we hypothesized that any real HTT protein binder might be co-purified with two or more macrocycles. […] In contrast, HAP40 was not enriched by HL5, consistent with its specificity for apo HTT.
Macrocycles were pre-conjugated to streptavidin beads (Cytiva, 17-5113-01) by incubating with a 30 μL slurry of beads per macrocycle purification (MP) in Lysis Buffer (10 mM Tris-HCl, pH 7.9, 150 mM NaCl, 0.1% NP-40, 1:500 protease inhibitor cocktail (Sigma-Aldrich), 1:1,000 benzonase nuclease, and 2 mM MgCl2) for 1 hour at 4°C. A concentration of 1.25 μM macrocycle was used for conjugation. After incubation, beads were washed three times with 500 μL Lysis Buffer to remove unbound macrocycles and resuspended in 500 μL of lysate at 4 mg/mL protein concentration.
Cells were harvested by centrifugation at 1,500 rpm for 5 minutes, washed twice with PBS, and snap-frozen. Cell pellets were then resuspended in 500 μL of Lysis Buffer (as described above) and incubated on an end-over-end rotator at 4°C for 1 hour. Lysates were clarified by centrifugation at 20,000g for 15 minutes at 4°C, and the supernatant was transferred to fresh 1.5 mL Eppendorf tubes. Protein concentration was determined by BCA assay (Thermo Fisher Scientific, 23225), yielding approximately 4 mg of protein on average. Lysates were diluted to a final concentration of 4 mg/mL for use, providing […] of total protein per MP.
Macrocycle-conjugated beads were incubated with 2 mg of lysate in Lysis Buffer for 1 hour at 4°C with rotation. After incubation, beads were collected by centrifugation at 3,000 rpm, and the flow-through was saved for analysis. Beads were then washed sequentially with 1 mL of Wash Buffer 1 (10 mM Tris-HCl, pH 7.9, 100 mM NaCl, 0.1% NP-40) and twice with Wash Buffer 2 (Wash Buffer 1 without detergent). Lastly, bound proteins were eluted from the beads with 200 μL of 0.5 M NH4OH and flash-frozen in liquid nitrogen.
All sample preparation, LC MS/MS data collection, and MS data searches were carried out at the SPARC BioCentre at The Hospital for Sick Children (Toronto, ON, Canada). […] Samples were analyzed by liquid chromatography tandem mass spectrometry (LC-MS/MS) using an EASY-nanoLC 1200 system with a 1 h analysis and an Orbitrap Fusion™ Lumos™ Tribrid™ Mass Spectrometer (Thermo Fisher Scientific). […]

[2] = system: HTT-HAP40 or HTT (HL5); test: FP displacement assay, FITC-labeled and unlabeled macrocycle pairs; assay type: binding; conditions: FITC-labeled HHL1 on HTT-HAP40; biological singlet in technical triplicate
Source text: We further verified the specificity of binding of the macrocycles for HTT and HTT-HAP40 by displacement assay (Supplementary Figure 3) with FITC-labeled and unlabeled macrocycle pairs. All labelled macrocycles were displaced by their sequence-matched unlabeled macrocycle, with IC50 values in the nanomolar range.
57 Supplementary Figure 3. Displacement of fluorescently labeled macrocycles. a, Schematic for
58 assay. b, Each fluorescently labeled macrocycle is displaced by its unlabeled partner from HTT-
59 HAP40 or HTT (HL5) Conducted as a biological singlet in technical triplicate. c, Fluorescently
60 labeled HHL1 is displaced by itself and HHD3, but no other macrocycle.
(§1) (1 picture or pasted object on this page, not shown here)

[3] = biological target: T1, HTTQ23-HAP40 (Homo sapiens, UniProt P23610+P42858, INS38QQ); test: Thermal shift assay (DSF), HTTQ23-HAP40; assay type: binding; conditions: SYPRO Orange, 0.25 mg/mL protein, macrocycle up to 10 μM, 2.5% DMSO, n=3
T1 construct: Full-length wildtype HTT with a polyQ tract of 23 glutamines; FLAG; made in house; host or cells: Sf9 insect cells (baculovirus)
T1 sequence (P42858 with tags, fused parts or gaps INS38QQ, one chain of several): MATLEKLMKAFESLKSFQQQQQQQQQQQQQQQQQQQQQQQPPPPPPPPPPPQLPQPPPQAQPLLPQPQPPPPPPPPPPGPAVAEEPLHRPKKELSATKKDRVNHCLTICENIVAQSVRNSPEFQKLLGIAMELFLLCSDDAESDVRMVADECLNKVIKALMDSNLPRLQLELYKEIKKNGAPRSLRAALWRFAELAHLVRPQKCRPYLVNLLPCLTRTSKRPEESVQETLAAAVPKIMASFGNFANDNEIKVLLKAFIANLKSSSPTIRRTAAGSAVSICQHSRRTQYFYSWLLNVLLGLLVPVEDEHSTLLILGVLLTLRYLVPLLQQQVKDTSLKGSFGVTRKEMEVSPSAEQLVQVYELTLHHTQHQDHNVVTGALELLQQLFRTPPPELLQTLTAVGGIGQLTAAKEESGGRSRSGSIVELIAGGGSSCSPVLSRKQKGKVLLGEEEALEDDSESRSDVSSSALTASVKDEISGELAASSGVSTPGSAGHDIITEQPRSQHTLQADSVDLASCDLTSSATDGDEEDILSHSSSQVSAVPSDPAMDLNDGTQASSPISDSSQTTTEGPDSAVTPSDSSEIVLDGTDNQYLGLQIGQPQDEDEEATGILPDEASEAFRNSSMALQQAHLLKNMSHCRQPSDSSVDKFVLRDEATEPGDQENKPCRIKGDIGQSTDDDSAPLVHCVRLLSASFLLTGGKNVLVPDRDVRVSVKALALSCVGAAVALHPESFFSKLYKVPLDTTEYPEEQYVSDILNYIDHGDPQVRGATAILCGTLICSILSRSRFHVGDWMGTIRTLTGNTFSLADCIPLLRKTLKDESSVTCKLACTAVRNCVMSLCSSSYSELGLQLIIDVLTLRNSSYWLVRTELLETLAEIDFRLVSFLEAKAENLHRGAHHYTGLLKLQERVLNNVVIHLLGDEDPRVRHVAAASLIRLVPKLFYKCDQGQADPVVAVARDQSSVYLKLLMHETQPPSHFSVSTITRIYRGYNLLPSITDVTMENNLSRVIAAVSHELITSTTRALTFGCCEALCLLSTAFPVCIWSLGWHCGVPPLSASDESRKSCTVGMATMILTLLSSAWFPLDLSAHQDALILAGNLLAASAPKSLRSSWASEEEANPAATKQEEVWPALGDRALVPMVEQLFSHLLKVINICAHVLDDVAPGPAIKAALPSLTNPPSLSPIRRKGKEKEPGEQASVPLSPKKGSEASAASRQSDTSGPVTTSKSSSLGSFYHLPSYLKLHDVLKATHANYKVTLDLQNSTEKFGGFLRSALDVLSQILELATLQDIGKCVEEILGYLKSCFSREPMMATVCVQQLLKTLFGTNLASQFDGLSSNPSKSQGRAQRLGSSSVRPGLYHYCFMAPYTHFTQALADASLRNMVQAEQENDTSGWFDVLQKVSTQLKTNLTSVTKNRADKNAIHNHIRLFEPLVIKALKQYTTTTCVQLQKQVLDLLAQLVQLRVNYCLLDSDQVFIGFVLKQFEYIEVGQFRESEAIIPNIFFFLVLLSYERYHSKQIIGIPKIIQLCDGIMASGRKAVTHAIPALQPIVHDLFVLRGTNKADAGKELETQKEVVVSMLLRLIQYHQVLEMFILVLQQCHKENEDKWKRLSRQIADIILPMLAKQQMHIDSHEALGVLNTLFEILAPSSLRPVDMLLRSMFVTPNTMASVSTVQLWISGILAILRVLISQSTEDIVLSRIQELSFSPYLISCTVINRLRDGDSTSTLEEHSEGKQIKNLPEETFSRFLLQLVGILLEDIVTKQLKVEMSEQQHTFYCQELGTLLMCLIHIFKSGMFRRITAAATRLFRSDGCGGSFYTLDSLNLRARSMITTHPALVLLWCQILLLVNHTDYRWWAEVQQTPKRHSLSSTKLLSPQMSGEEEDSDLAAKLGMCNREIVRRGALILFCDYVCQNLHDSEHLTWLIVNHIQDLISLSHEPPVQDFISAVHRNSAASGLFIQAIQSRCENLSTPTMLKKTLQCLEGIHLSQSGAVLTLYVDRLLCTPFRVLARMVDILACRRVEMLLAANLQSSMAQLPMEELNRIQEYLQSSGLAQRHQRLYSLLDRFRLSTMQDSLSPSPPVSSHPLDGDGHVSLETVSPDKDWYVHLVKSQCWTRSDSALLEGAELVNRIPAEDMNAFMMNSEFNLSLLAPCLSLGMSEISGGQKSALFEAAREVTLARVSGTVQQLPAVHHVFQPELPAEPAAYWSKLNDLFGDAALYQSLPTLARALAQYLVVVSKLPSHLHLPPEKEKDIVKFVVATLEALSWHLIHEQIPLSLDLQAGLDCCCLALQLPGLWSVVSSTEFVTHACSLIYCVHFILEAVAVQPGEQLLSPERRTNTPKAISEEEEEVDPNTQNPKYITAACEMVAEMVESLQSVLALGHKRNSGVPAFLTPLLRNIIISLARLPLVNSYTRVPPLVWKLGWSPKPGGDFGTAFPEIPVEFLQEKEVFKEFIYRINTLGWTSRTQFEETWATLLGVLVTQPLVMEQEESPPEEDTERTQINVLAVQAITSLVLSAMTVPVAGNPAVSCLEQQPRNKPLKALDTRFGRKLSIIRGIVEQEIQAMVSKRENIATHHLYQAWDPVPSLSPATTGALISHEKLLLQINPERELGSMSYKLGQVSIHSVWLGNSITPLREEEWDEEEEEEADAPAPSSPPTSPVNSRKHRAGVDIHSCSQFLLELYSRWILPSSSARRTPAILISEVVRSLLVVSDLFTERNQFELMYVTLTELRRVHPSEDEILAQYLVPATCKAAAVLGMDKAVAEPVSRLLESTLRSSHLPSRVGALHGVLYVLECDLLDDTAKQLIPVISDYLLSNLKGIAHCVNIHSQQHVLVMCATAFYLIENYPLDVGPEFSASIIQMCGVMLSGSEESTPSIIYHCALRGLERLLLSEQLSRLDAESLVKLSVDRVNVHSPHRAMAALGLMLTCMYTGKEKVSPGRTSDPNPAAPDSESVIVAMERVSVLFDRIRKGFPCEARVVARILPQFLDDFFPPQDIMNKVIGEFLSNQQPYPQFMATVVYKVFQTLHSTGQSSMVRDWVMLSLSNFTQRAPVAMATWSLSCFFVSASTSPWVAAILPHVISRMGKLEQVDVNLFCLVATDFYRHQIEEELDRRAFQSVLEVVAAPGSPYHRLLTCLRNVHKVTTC
Method: In an Axygen® 384-well PCR microplate (REF# PCR-384-LC480-W-NF, Corning), samples were mixed to yield a final concentration of 0.25 mg/mL Q54 or Q23/HAP40, a 5-pt 2-fold serial dilution of each macrocycle (top concentration of 10 μM, 2.5% DMSO), and 5X SYPRO™ Orange (CAT# S6650, Thermo Fisher Scientific) in buffer (20 mM HEPES pH 7.4, 150 mM NaCl, 1 mM TCEP, 0.005% Tween-20). Differential Scanning Fluorimetry (DSF) was performed using a LightCycler® 480 (Roche LifeSciences) set to a 4 °C/min temperature ramp (20–95 °C) and fluorescence detection at 580 nm. Melting temperatures (Tm) were obtained from the minima of the negative derivative of each curve. The propagated error of the thermal shift (ΔTm) was calculated from the standard deviation of each Tm mean (n=3). To ensure a maximally macrocycle-bound fraction (KD ~10 nM; ~100% bound) at 0.25 mg/mL HTT or HTT-HAP40 (~0.7 μM), the upper limit of macrocycle tested was 10 μM.
98 Supplementary Figure. 10. Thermal shift (ΔTm) induced by macrocycle binding. Melting
99 temperature of HTTQ54 (left) with HL5 or HL2 minus HTTQ54 with DMSO (46.5 °C), and (right)
100 HTTQ23-HAP40 with HD4, HL2, HL5, HHD2, HHD3, or HHL1 minus HTTQ23-HAP40 with DMSO
101 (51.0 °C). ΔTm significance was determined using an unpaired t-test with Welch correction,
102 comparing to the mean Tm of Q54 or Q23-HAP40 with DMSO; *P < 0.05, **P < 0.01, ***P <
103 0.001. The summary table reports the ΔTm and exact P value at the highest concentration tested
as §1

[4] = biological target: T2, 40-kDa huntingtin-associated protein (HAP40), chain of the HTT-HAP40 complex used for cryo-EM (UniProt P23610 1-371); test: cryo-EM structure; HTT-HAP40 macrocycle complexes at 0.2 mg/ml in 25 mM HEPES pH 7.4, 150 mM NaCl, 0.025% CHAPS on graphene grids; Complex1 (HHL1, HL2, HD4) and Complex2 (HHD3, HL2, HD4); conditions: both partners purified
T2 construct: 40-kDa huntingtin-associated protein (HAP40); model built from PDB 6X90; The HAP40 chain of m26, for the pairs that touch in the structures
T2 sequence (looked up): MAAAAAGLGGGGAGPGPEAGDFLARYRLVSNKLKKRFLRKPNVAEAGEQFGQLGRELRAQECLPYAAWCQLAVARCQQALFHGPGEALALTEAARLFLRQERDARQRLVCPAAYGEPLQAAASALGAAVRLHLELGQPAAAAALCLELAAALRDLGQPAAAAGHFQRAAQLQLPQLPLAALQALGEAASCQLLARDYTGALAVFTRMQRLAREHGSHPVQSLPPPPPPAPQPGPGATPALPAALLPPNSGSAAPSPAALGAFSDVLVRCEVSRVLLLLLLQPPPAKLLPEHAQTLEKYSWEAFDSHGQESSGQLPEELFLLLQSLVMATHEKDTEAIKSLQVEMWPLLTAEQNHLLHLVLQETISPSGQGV

[5] = biological target: C-terminally biotinylated HTTQ23 (apo) (biotin on the C-terminal Avi-tag); test: SPR
C-terminally biotinylated HTTQ23 (apo) (biotin on the C-terminal Avi-tag), sequence (P42858 other isoform, or with tags, fused parts or gaps): as the sequence (P42858 with tags, fused parts or gaps INS38QQ, one chain of several) above, with Y2311H, V2788I counted along it

[6] = biological target: HTTQ54 (apo); test: FP
[7] = biological target: HTTQ23-HAP40 (UniProt P23610 1-371); test: FP
[8] = biological target: Full-length wildtype HTT with a polyQ tract of 23 glutamines, apo form (HTTQ23); test: FP
Full-length wildtype HTT with a polyQ tract of 23 glutamines, apo form (HTTQ23), sequence (P42858 other isoform, or with tags, fused parts or gaps): as the sequence (P42858 with tags, fused parts or gaps INS38QQ, one chain of several) above, with Y2311H, V2788I counted along it

[9] = biological target: C-terminally biotinylated HTTQ23 in complex with HAP40 (UniProt P23610 1-371, biotin on the C-terminal Avi-tag); test: SPR
C-terminally biotinylated HTTQ23 in complex with HAP40, sequence (P42858 other isoform, or with tags, fused parts or gaps, chain 1 of 2, one chain of several): as the sequence (P42858 with tags, fused parts or gaps INS38QQ, one chain of several) above, with Y2311H, V2788I counted along it

Displacement of fluorescently labeled HHL1 by unlabeled macrocycle [2]: displaced | Thermal shift (ΔTm) of HTTQ23-HAP40 induced by macrocycle [3]: stabilized
Molecule: CC[C@H](C)[C@@H]1NC(=O)[C@H](Cc2c[nH]c3ccccc23)NC(=O)[C@H](Cc2c[nH]c3ccccc23)NC(=O)[C@H](CC(N)=O)NC(=O)[C@H](CC(N)=O)NC(=O)[C@H](CCC(N)=O)NC(=O)[C@H](Cc2c[nH]c3ccccc23)NC(=O)[C@H](Cc2c[nH]cn2)NC(=O)[C@H](CCCNC(=N)N)NC(=O)[C@H]([C@@H](C)O)NC(=O)[C@@H](Cc2ccc(O)cc2)NC(=O)CSC[C@@H](C(N)=O)NC(=O)[C@H](Cc2ccccc2)NC(=O)[C@H](CCC(=O)O)NC(=O)[C@H](Cc2c[nH]cn2)NC(=O)[C@H](Cc2ccc(O)cc2)NC(=O)[C@H](CC(C)C)NC1=O [HHD3] ({CH2CO}-[dY]TRHWQNNWWILYHEFC-NH2; thioether N-17; C-terminus assumed)
Enrichment of HAP40 in macrocycle pulldowns [1]: consistently enriched

Displacement of fluorescently labeled HHL1 by unlabeled macrocycle [2]: displaced | Thermal shift (ΔTm) of HTTQ23-HAP40 induced by macrocycle [3]: stabilized
Molecule: CC[C@H](C)[C@@H]1NC(=O)[C@H](CC(C)C)NC(=O)[C@H](Cc2ccc(O)cc2)NC(=O)CSC[C@@H](C(N)=O)NC(=O)[C@@H]2CCCN2C(=O)[C@H](C(C)C)NC(=O)[C@H](CCC(=O)O)NC(=O)[C@H](C(C)C)NC(=O)[C@H](Cc2ccccc2)NC(=O)[C@H](C(C)C)NC(=O)[C@H](Cc2ccccc2)NC(=O)[C@H](Cc2c[nH]c3ccccc23)NC(=O)[C@H](CC(N)=O)NC(=O)[C@H](Cc2ccccc2)NC(=O)[C@H](CO)NC(=O)[C@H](CO)NC(=O)[C@H](CCCNC(=N)N)NC1=O [HHL1] ({CH2CO}-YLIRSSFNWFVFVEVPC-NH2; thioether N-17; C-terminus assumed)

binding result [4]: binds
B1: HHD3 (peptide)
peptide: {CH2CO}-[dY]TRHWQNNWWILYHEFC
modifications: thioether N-17 (inferred)
notes: macrocyclic peptide selected by RaPID on HTT-HAP40; printed with a superscript D before the first Y (D-tyrosine); also called macrocycle HHD3; source: synthetic peptide (Fmoc SPPS, RP-HPLC), without tags

Kd [5]: 10 nM
Molecule: {CH2CO}-YTHFQVAPWIQSLC (thioether N-14 (inferred)) [HL5]

Kd [6]: 1.5 nM | Kd [7]: 1.6 nM | Kd [8]: 7.3 nM
B2: FITC-labeled HD4 (peptide)
peptide: ClAc-[dY]DIWCETNKQTGILVLC-{FITC″}
modifications: thioether (positions not given here); also: thioether to downstream Cys, which of Cys5/Cys17 not given here

Kd [5]: 4.1 nM | Kd [9]: 2.1 nM
B3: HD4 (peptide)
peptide: ClAc-[dY]DIWCETNKQTGILVLC
modifications: thioether (positions not given here); also: thioether to downstream Cys, which of Cys5/Cys17 not given here

binding result [4]: binds | Kd [9]: 7 nM
B4: HHL1 (peptide)
peptide: {CH2CO}-YLIRSSFNWFVFVEVPC
modifications: thioether N-17 (inferred)
notes: macrocyclic peptide selected by RaPID on HTT-HAP40; also called macrocycle HHL1; source: synthetic peptide (Fmoc SPPS, RP-HPLC), without tags
